Assay results from patent publication US20120034160A1 (AbbVie / Abbott, published 2012).
Substitutions are numbered along the chain they refer to.

T1: Recombinant Human IL-17 (human, UniProt Q16552 20-155, limits assumed)
T1 sequence (looked up): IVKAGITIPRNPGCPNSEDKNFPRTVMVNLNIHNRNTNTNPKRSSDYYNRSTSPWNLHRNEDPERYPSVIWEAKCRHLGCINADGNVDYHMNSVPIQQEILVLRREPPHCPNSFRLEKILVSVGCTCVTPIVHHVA

B1: DVD1264 (bispecific antibody, human IgG1, kappa)
heavy: not shown
light: DIQMTQSPSSLSASVGDRVTITCRASGNIHNYLTWYQQTPGKAPKLLIYNAKTLADGVPSRFSGSGSGTDYTFTISSLQPEDIATYYCQHFWSIPYTFGQGTKLQITRTVAAPDIQMTQSPSSLSASVGDRVTITCRASSGIISYIDWFQQKPGKAPKRLIYATFDLASGVPSRFSGSGSGTDYTLTISSLQPEDFATYYCRQVGSYPETFGQGTKLEIKRTVAAPSVFIFPPSDEQLKSGTASVVCLLNNFYPREAKVQWKVDNALQSGNSQESVTEQDSKDSTYSLSSTLTLSKADYEKHKVYACEVTHQGLSSPVTKSFNRGEC
B2: DVD1265 (bispecific antibody, human IgG1, kappa)
heavy: not shown
light: DIQMTQSPSSLSASVGDRVTITCRASSGIISYIDWFQQKPGKAPKRLIYATFDLASGVPSRFSGSGSGTDYTLTISSLQPEDFATYYCRQVGSYPETFGQGTKLEIKRTVAAPDIQMTQSPSSLSASVGDRVTITCRASGNIHNYLTWYQQTPGKAPKLLIYNAKTLADGVPSRFSGSGSGTDYTFTISSLQPEDIATYYCQHFWSIPYTFGQGTKLQITRTVAAPSVFIFPPSDEQLKSGTASVVCLLNNFYPREAKVQWKVDNALQSGNSQESVTEQDSKDSTYSLSSTLTLSKADYEKHKVYACEVTHQGLSSPVTKSFNRGEC
B3: DVD1269 (bispecific antibody, human IgG1, kappa)
heavy: not shown
light: DIQMTQSPSSLSASVGDRVTITCRASSGIISYIDWFQQKPGKAPKRLIYATFDLASGVPSRFSGSGSGTDYTLTISSLQPEDFATYYCRQVGSYPETFGQGTKLEIKRTVAAPDTVVTQSPAFLSVTPGEKVTITCITSTDIDVDMNWYQQKPDQPPKLLISQGNTLRPGVPSRFSSSGSGTDFTFTISSLEAEDAATYYCLQSDNLPLTFGQGTKLEIKRTVAAPSVFIFPPSDEQLKSGTASVVCLLNNFYPREAKVQWKVDNALQSGNSQESVTEQDSKDSTYSLSSTLTLSKADYEKHKVYACEVTHQGLSSPVTKSFNRGEC
B4: DVD1267 (bispecific antibody, human IgG1, kappa)
heavy: not shown
light: DIQMTQSPSSLSASVGDRVTITCRASSGIISYIDWFQQKPGKAPKRLIYATFDLASGVPSRFSGSGSGTDYTLTISSLQPEDFATYYCRQVGSYPETFGQGTKLEIKRTVAAPDTQVTQSPSSLSASVGDRVTITCITSTDIDVDMNWYQQKPGKPPKLLISQGNTLRPGVPSRFSSSGSGTDFTFTISSLQPEDFATYYCLQSDNLPLTFGQGTKLEIKRTVAAPSVFIFPPSDEQLKSGTASVVCLLNNFYPREAKVQWKVDNALQSGNSQESVTEQDSKDSTYSLSSTLTLSKADYEKHKVYACEVTHQGLSSPVTKSFNRGEC
B5: DVD1271 (bispecific antibody, human IgG1, kappa)
heavy: not shown
light: B4 light with D114E, Q116T
B6: DVD1273 (bispecific antibody, human IgG1, kappa)
heavy: not shown
light: EIVLTQSPDFQSVTPKEKVTITCRASQDIGSELHWYQQKPDQPPKLLIKYASHSTSGVPSRFSGSGSGTDFTLTINGLEAEDAGTYYCHQTDSLPYTFGPGTKVDIKRTVAAPDIQMTQSPSSLSASVGDRVTITCRASGNIHNYLTWYQQTPGKAPKLLIYNAKTLADGVPSRFSGSGSGTDYTFTISSLQPEDIATYYCQHFWSIPYTFGQGTKLQITRTVAAPSVFIFPPSDEQLKSGTASVVCLLNNFYPREAKVQWKVDNALQSGNSQESVTEQDSKDSTYSLSSTLTLSKADYEKHKVYACEVTHQGLSSPVTKSFNRGEC
B7: DVD1275 (bispecific antibody, human IgG1, kappa)
heavy: not shown
light: B6 light
B8: DVD1278 (bispecific antibody, human IgG1, kappa)
heavy: not shown
light: DTVVTQSPAFLSVTPGEKVTITCITSTDIDVDMNWYQQKPDQPPKLLISQGNTLRPGVPSRFSSSGSGTDFTFTISSLEAEDAATYYCLQSDNLPLTFGQGTKLEIKRTVAAPEIVLTQSPDFQSVTPKEKVTITCRASQDIGSELHWYQQKPDQPPKLLIKYASHSTSGVPSRFSGSGSGTDFTLTINGLEAEDAGTYYCHQTDSLPYTFGPGTKVDIKRTVAAPSVFIFPPSDEQLKSGTASVVCLLNNFYPREAKVQWKVDNALQSGNSQESVTEQDSKDSTYSLSSTLTLSKADYEKHKVYACEVTHQGLSSPVTKSFNRGEC
B9: DVD1277 (bispecific antibody, human IgG1, kappa)
heavy: not shown
light: EIVLTQSPDFQSVTPKEKVTITCRASQDIGSELHWYQQKPDQPPKLLIKYASHSTSGVPSRFSGSGSGTDFTLTINGLEAEDAGTYYCHQTDSLPYTFGPGTKVDIKRTVAAPDTQVTQSPSSLSASVGDRVTITCITSTDIDVDMNWYQQKPGKPPKLLISQGNTLRPGVPSRFSSSGSGTDFTFTISSLQPEDFATYYCLQSDNLPLTFGQGTKLEIKRTVAAPSVFIFPPSDEQLKSGTASVVCLLNNFYPREAKVQWKVDNALQSGNSQESVTEQDSKDSTYSLSSTLTLSKADYEKHKVYACEVTHQGLSSPVTKSFNRGEC
B10: DVD1266 (bispecific antibody, human IgG1, kappa)
heavy: not shown
light: DTQVTQSPSSLSASVGDRVTITCITSTDIDVDMNWYQQKPGKPPKLLISQGNTLRPGVPSRFSSSGSGTDFTFTISSLQPEDFATYYCLQSDNLPLTFGQGTKLEIKRTVAAPDIQMTQSPSSLSASVGDRVTITCRASSGIISYIDWFQQKPGKAPKRLIYATFDLASGVPSRFSGSGSGTDYTLTISSLQPEDFATYYCRQVGSYPETFGQGTKLEIKRTVAAPSVFIFPPSDEQLKSGTASVVCLLNNFYPREAKVQWKVDNALQSGNSQESVTEQDSKDSTYSLSSTLTLSKADYEKHKVYACEVTHQGLSSPVTKSFNRGEC
B11: DVD1270 (bispecific antibody, human IgG1, kappa)
heavy: not shown
light: B10 light with D1E, Q3T
B12: DVD1272 (bispecific antibody, human IgG1, kappa)
heavy: not shown
light: DIQMTQSPSSLSASVGDRVTITCRASGNIHNYLTWYQQTPGKAPKLLIYNAKTLADGVPSRFSGSGSGTDYTFTISSLQPEDIATYYCQHFWSIPYTFGQGTKLQITRTVAAPEIVLTQSPDFQSVTPKEKVTITCRASQDIGSELHWYQQKPDQPPKLLIKYASHSTSGVPSRFSGSGSGTDFTLTINGLEAEDAGTYYCHQTDSLPYTFGPGTKVDIKRTVAAPSVFIFPPSDEQLKSGTASVVCLLNNFYPREAKVQWKVDNALQSGNSQESVTEQDSKDSTYSLSSTLTLSKADYEKHKVYACEVTHQGLSSPVTKSFNRGEC
B13: DVD1274 (bispecific antibody, human IgG1, kappa)
heavy: not shown
light: B12 light
B14: DVD1276 (bispecific antibody, human IgG1, kappa)
heavy: not shown
light: DTQVTQSPSSLSASVGDRVTITCITSTDIDVDMNWYQQKPGKPPKLLISQGNTLRPGVPSRFSSSGSGTDFTFTISSLQPEDFATYYCLQSDNLPLTFGQGTKLEIKRTVAAPEIVLTQSPDFQSVTPKEKVTITCRASQDIGSELHWYQQKPDQPPKLLIKYASHSTSGVPSRFSGSGSGTDFTLTINGLEAEDAGTYYCHQTDSLPYTFGPGTKVDIKRTVAAPSVFIFPPSDEQLKSGTASVVCLLNNFYPREAKVQWKVDNALQSGNSQESVTEQDSKDSTYSLSSTLTLSKADYEKHKVYACEVTHQGLSSPVTKSFNRGEC
B15: DVD1268 (bispecific antibody, human IgG1, kappa)
heavy: not shown
light: DTVVTQSPAFLSVTPGEKVTITCITSTDIDVDMNWYQQKPDQPPKLLISQGNTLRPGVPSRFSSSGSGTDFTFTISSLEAEDAATYYCLQSDNLPLTFGQGTKLEIKRTVAAPDIQMTQSPSSLSASVGDRVTITCRASSGIISYIDWFQQKPGKAPKRLIYATFDLASGVPSRFSGSGSGTDYTLTISSLQPEDFATYYCRQVGSYPETFGQGTKLEIKRTVAAPSVFIFPPSDEQLKSGTASVVCLLNNFYPREAKVQWKVDNALQSGNSQESVTEQDSKDSTYSLSSTLTLSKADYEKHKVYACEVTHQGLSSPVTKSFNRGEC

Assays:
Recombinant Human IL-1β = Recombinant Human IL-1β (human, UniProt P01584 117-269); experiment: cell-based or functional assay
Recombinant Human IL-17 = target: T1, Recombinant Human IL-17; experiment: cell-based or functional assay

Binder | N-Terminal VD IL-1β Neutralization Assay EC50 (Recombinant Human IL-1β) | C-terminal VD IL-17 Neutralization Assay EC50 (Recombinant Human IL-17) | C-Terminal VD IL-1β Neutralization Assay EC50 (Recombinant Human IL-1β) | N-terminal VD IL-17 Neutralization Assay EC50 (Recombinant Human IL-17)
B1 | 120 pM | 8.4 pM | – | –
B2 | – | – | 925 pM | 2.8 pM
B3 | – | – | > 45000 pM | 8.2 pM
B4 | – | – | > 40000 pM | 10.9 pM
B5 | – | – | > 30000 pM | 10.9 pM
B6 | – | – | 18400 pM | 1.3 pM
B7 | – | – | 1920 pM | 0.6 pM
B8 | 145 pM | 346 pM | – | –
B9 | – | – | > 20000 pM | 9.2 pM
B10 | 327 pM | 15 pM | – | –
B11 | 265 pM | 40.7 pM | – | –
B12 | 13.9 pM | 346 pM | – | –
B13 | 6.8 pM | 1080 pM | – | –
B14 | 168 pM | 1210 pM | – | –
B15 | 146 pM | 3.4 pM | – | –
